21 sequences from the DeepSol protein solubility set can be followed below.

This data set is described as follows: soluble on expression in E. coli; label from the status in PepcDB or PDB records.
As to “MGSDKIHHHHHHMRFYPWLQWLKRKTAGAGCVHQFIQTQCPAPAESGTQEPPPAEQDTQTESNAMPSLALRIGDKNFRATLYDNDSTRSLLKKLPLTLTMDELNGNEKFYFFSEKLPSASERVGSIKTGDLMLYGSDCLVLFYESFPTSYSYTRLGTVDDVTGLANALGSGSVEVTFSIN”, the “soluble on expression in E. coli” value is “not soluble”.

As to “MGSDKIHHHHHHMDFIEVYPNALPDDLCDRLILAFDQHTGVVDGQTGNGVDPEKKISRDLTLDNFDDMQPLKNELLSYTLKGVVDYFTQYSMALMGAVAVSVSDAEGKPTTLTPSNFAQLGLPKVDGLVKYLYRSGSINIQKYQRNKGGYPHWHSEQFPQSGHNEALHRVVFYMFYLNDVEEGGETEFYYQRRKISPKKGTMVIAPAGFTHSHRGNMPISNDKYIATSWVMFNRAEQLYTVYA”, the “soluble on expression in E. coli” value was “not soluble”.

On to “MGSDKIHHHHHHMNFQRDFNDLLNALLTDWRNQFPDADLSQGSLIYMKSACLASALWGLYKYQEWISKQIFPDTAETKYLEHHAWVRGLSRRSGETDEELLARLLEYIRRPPAGGNKYDYQKWALEIDNVANAWCIPLSQGPGTVDVIIAADETVTGSEIPSSHALTGTTTAITENKLVDGAADFMATGDGGPVRIGDIAVNDDTGGQAVITAVDNATQLTLDTDIFSSIGQSYTLKSLTAQVGEYIDDVRPVTVSIVRILPPAVTLQDVTMTVTGTVNKEAIASAITSLLRSLVPGQTLYLSRLIAIAIQEGATNASISAPAADMSPGPYEMLRPGTITVS”, for which the “soluble on expression in E. coli” value was “not soluble”.

On to “GSGEAKPQAPELRIFPKKMDAELGQKVDLVCEVLGSVSQGCSWLFQNSSSKLPQPTFVVYMASSHNKITWDEKLNSSKLFSAMRDTNNKYVLTLNKFSKENEGYYFCSVISNSVMYFSSVVPVLQKVNSTTTKPVLRTPSPVHPTGTSQPQRPEDCRPRGSVKGTG”, for which the “soluble on expression in E. coli” value is recorded as “soluble”.

In the case of “MTSNQLAQYIDHTALTAEKNEQDISTLCNEAIEHGFYSVCINSAYIPLAKEKLAGSNVKICTVVGFPLGANLTSVKAFETQESIKAGANEIDMVINVGWIKSQKWDEVKQDIQAVFNACNGTPLKVILETCLLTKDEIVKACEICKEIGVAFVKTSTGFNKGGATVEDVALMKNTVGNIGVKASGGVRDTETALAMIKAGATRIGASAGIAIISGTQDTQSTYLEHHHHHH”, the “soluble on expression in E. coli” value is “soluble”.

As to “MAGDPMAYQQGKQGQNVEKESTRQQETKPIHVKDTTQETKDNGTRTDIAKHLVSVAEKNPDVKDATAVVLGGYAVVGIDVDDTLDRSKVETIKYSVAQALKNDRYGANAVVIADPDTVSRLREMSREISEGHPVTGILDELAAIVGRVLPEVPNDVIDNEDEPQTKQQNDQLNRKQQQEMEKEQNDQSDHHMKKNNNDLEHHHHHH”, the “soluble on expression in E. coli” value is recorded as “soluble”.

Turning to “HGYVESPASRAYQCKLQLNTQCGSVQAEPQSVEGLKGFPQAGPADGHIASADKSTFFELDQQTPTRWNKLNLKTGPNSFTWKLTARHSTTSWRYFITKPNWDASQPLTRASFDLTPFCQFNDGGAIPAAQVTHQCNIPADRSGSHVILAVWDIADTANAFYQAIDVNLSK”, the “soluble on expression in E. coli” value is given as “soluble”.

Turning to “MGSDKIHHHHHHMKTERILGALYGQALGDAMGMPSELWPRSRVKAHFGWIDRFLPGPKENNAACYFNRAEFTDDTSMALCLADALLEREGKIDPDLIGRNILDWALRFDAFNKNVLGPTSKIALNAIRDGKPVAELENNGVTNGAAMRVSPLGCLLPARDVDSFIDDVALASSPTHKSDLAVAGAVVIAWAISRAIDGESWSAIVDSLPSIARHAQQKRITTFSASLAARLEIALKIVRNADGTESASEQLYQVVGAGTSTIESVPCAIALVELAQTDPNRCAVLCANLGGDTDTIGAMATAICGALHGVNAIDPALKAELDAVNQLDFNRYATALAKYRQQREAV”, the “soluble on expression in E. coli” value is “not soluble”.

For “MSLPPILTSQIGPDSIELRLLVAADLEYFNGHFPEQAVLPGVTQLDWAVRLGCEHFGYSAAVANLEVLKFQQLILPGQEVTLVISHNATKEKLTFAYSDGDHRYASGRISFASKQDDGLEHHHHHH”, the “soluble on expression in E. coli” value is reported as “not soluble”.

Turning to “MSLALIVHKYGGTSVGSPERIKNVAKRVAKARAEGHDIVVVVSAMSGETNRLVALAHEMQEHPDPRELDVVLATGEQVTIGLLAMALKDIGVDAKSYTGWQVALKTDTAHTKARIESIDDEKMRADLTAGKVVIVAGFQGISSEGDISTLGRGGSDTSAVALAAALKADECQIYTDVDGVYTTDPRVVPEARRMDTVTFEEMIELASLGSKVLQIRSVEFAGKYKVRLRVLSSLQDGGNGTLITFEEDDNMERAAVTGIAFDKNQARINVRGVPDKPGVAYQILGAVADANIEVDMIIQNVGSEGTTDFSFTVPRGDYKQTLEILSERQDSIGAASIDGDDTVCKVSAVGLGMRSHVGVAAKIFRTLAEEGINIQMISTSEIKVSVLIDEKYMELATRVLHKAFNLGEGHHHHHH”, the “soluble on expression in E. coli” value was “soluble”.

Regarding “MAHHHHHHMNVEVTGRCFFTGDDYYISLPITNRAANRGEPRQLLCSEMIHWDDYRQERGINDGKPPMQQLFASSYAEPLVRTFALGNDTYVTQVTGVSATQAGSSSQMFSAEMLHWDDYCAARGINAGEPTMASLFRPFESKSILVFDLNERKLTEFEGNSVALISYGADRQTYCSEMEHRDDYIRAKTGQAPQPSMASLFA”, the “soluble on expression in E. coli” value is “not soluble”.

In the case of “MKRKFLIASHGNLAKGFQSSLDILADKGKELAVINAYVTPEDYTPIIQTFLQSLGAEEQAIILTDLYGGSVNQKIVQEVMTTKPDNVFIISNANLAIALSLIFLKEGEKLTKEDIQAAIAEAQIQFVELNPSNEEENFF”, the “soluble on expression in E. coli” value is “not soluble”.

On to “MGSDKIHHHHHHMEIKEMVSLARKAQKEYQATHNQEAVDNICRAAAKVIYENAAILAREAVDETGMGVYEHKVAKNQGKSKGVWYNLHNKKSIGILNIDERTGMIEIAKPIGVVGAVTPTTNPIVTPMSNIIFALKTCNAIIIAPHPRSKKCSAHAVRLIKEAIAPFNVPEGMVQIIEEPSIEKTQELMGAVDVVVATGGMGMVKSAYSSGKPSFGVGAGNVQVIVDSNIDFEAAAEKIITGRAFDNGIICSGEQSIIYNEADKEAVFTAFRNHGAYFCDEAEGDRARAAIFENGAIAKDVVGQSVAFIAKKANINIPEGTRILVVEARGVGAEDVICKEKMCPVMCALSYKHFEEGVEIARTNLANEGNGHTCAIHSNNQAHIILAGSELTVSRIVVNAPSATTAGGHIQNGLAVTNTLGCGSWGNNSISENFTYKHLLNISRIAPLNSSIHIPDDKEIWEL”, for which the “soluble on expression in E. coli” value is recorded as “not soluble”.

In the case of “MGSSHHHHHHSSGLVPRGSHMAVSGPDDYLQHSIVPTMHYQDSLPRLPIPKLEDTMKRYLNAQKPLLDDSQFRRTEALCKNFETGVGKELHAHLLAQDKQNKHTSYISGPWFDMYLTARDSIVLNFNPFMAFNPDPKSEYNDQLTRATNLTVSAVRFLKTLQAGLLEPEVFHLNPSKSDTDAFKRLIRFVPPSLSWYGAYLVNAYPLDMSQYFRLFNSTRIPRPNRDELFTDTKARHLLVLRKGHFYVFDVLDQDGNIVNPLEIQAHLKYILSDSSPVPEFPVAYLTSENRDVWAELRQKLIFDGNEETLKKVDSAVFCLCLDDFPMKDLIHLSHTMLHGDGTNRWFDKSFNLIVAEDGTAAVHFEHSWGDGVAVLRFFNEVFRDSTQTPAITPQSQPAATNSSASVETLSFNLSGALKAGITAAKEKFDTTVKTLSIDSIQFQRGGKEFLKKKQLSPDAVAQLAFQMAFLRQYGQTVATYESCSTAAFKHGRTETIRPASIFTKRCSEAFVRDPSKHSVGELQHMMAECSKYHGQLTKEAAMGQGFDRHLYALRYLATARGLNLPELYLDPAYQQMNHNILSTSTLNSPAVSLGGFAPVVPDGFGIAYAVHDDWIGCNVSSYSGRNAREFLHCVQKCLEDIFDALEGKAIKT”, the “soluble on expression in E. coli” value was “soluble”.

In the case of “GPGSMMTEATTTPVETPIVCNIRDAAGLEGKLVTFKGWAYHIRKARKTLIFVELRDGSGYCQCVIFGKELCEPEKVKLLTRECSLEITGRLNAYAGKNHPPEIADILNLEMQVTEWKVIGESPIDLENIINKDSSIPQKMQNRHIVIRSEHTQQVLQLRSEIQWYFRKYYHDNHFTEIQPPTIVKTQCEGGSTLFKLQYFNEPAYLTQSSQLYLESVIASLGKSFCMLSSYRAEQSRTVRHLAEYLHLEAELPFISFEDLLNHLEDLVCTVIDNVMAVHGDKIRKMNPHLKLPTRPFKRMTYADAIKYCNDHGILNKDKPFEYGEDISEKPERQMTDEIGCPIFMIHFPSKMKAFYMSKVPGHPDLTESVDLLMPGVGEIVGGSMRIWNYDELMGAYKANGLNPDPYYWYTQQRKYGSCPHGGYGLGVERLVMWLLGEDHIRKVCLYPRYLERCEP”, the “soluble on expression in E. coli” value is given as “soluble”.

“MGSDKIHHHHHHMTWKSVNFDWNHIRAFLVTAEEGTLSAAAKALGLTQPTLSRQVSALETELCITLFERVGQRLVLTSSGLKLLEHARGMGDAALEFSLAVTGQSQKIEGSVIVSAGELTAAYMLPKIISKLRREEPGIDIEVVVTNEASDLKRREADIAIRSFHPTQNDLIAKKIGEEVIWLYGTPEYLDQLPTIPSFSELKDIQIIGFDRSNSLTDVLNKQGWQLSKKNFSLITSFQLLQLALCKEGQGVIFYPEQMGDQEPNLVRAYEHLGPVMKLPVWLVCHQELRTSLRVRRVFDFIATELSDNFY”: the “soluble on expression in E. coli” value was “not soluble”.

Regarding “MLRREFGPKYTAKINEAEENWQARAEAIKKGKKQNTWDLFEERGYVKDTAGTKEHIAELMRTRRIGAYVGIDPTAPSLHVGHLLPLMPLFWMYLEGYKAFTLIGGSTAKIGDPTGRLKSRDHLSSSDATMNMTKIHYQLKKLWENVDTQMRARGYEADWARKRGIVNNNHWWNKQPMLEVLRRVGHALRIGPMLSRDTVKNKMTQGDGVSFAEFTYPIMQGWDWFELFYQQGVQMQIGGSDQYGNIISGLEVVKAARESEPDPQERKYVTPKTALDECVGFTVPLLTDSSGAKFGKSAGNAIWLDPYQTSVFDFYGYFVRRSDQEVENLLKLFTFMPISEITKTMEEHIKDPSKRVAQHTLAREVVTLVHGKQEASAAEDQHRMMYTGQMTI”, the “soluble on expression in E. coli” value is reported as “soluble”.

With “MIVLPRRLSDEVADRVRALIDEKNLEAGMKLPAERQLAMQLGVSRNSLREALAKLVSEGVLLSRRGGGTFIRWRHDTWSEQNIVQPLKTLMADDPDYSFDILEARYAIEASTAWHAAMRATPGDKEKIQLCFEATLSEDPDIASQADVRFHLAIAEASHNIVLLQTMRGFFDVLQSSVKHSRQRMYLVPPVFSQLTEQHQAVIDAIFAGDADGARKAMMAHLSFVHTTMKRFDEDQARHARITRLPGEHNEHSREKNA”, the “soluble on expression in E. coli” value is “soluble”.

Turning to “KPEWMMIHRILNHSVDKKGHVHYLIKWRDLPYDQASWESEDVEIQDYDLFKQSYWNH”, the “soluble on expression in E. coli” value was “soluble”.

With “MDPNKFREKEISKKEALELFEDNEIIFELFKFADSLRREEVGDIVTYVVNRNINFTNICVGNCRFCAFRANENDKHAYFLDIDEIAKRAVEAKKFGCTEVCIQGGLHPKIDTYYQAEILKAVHEATKPYGDIHIHAFSPMEVYFGAENAGLDIKEALKILKENGLNSMPGTAAEILDDDIRAELCPNKIKTKEWIYIIKEAHKLGIPTTATMMYGHIEEYKHWVNHLFIIKEIQEETNGFTEFVPLSFMHKYAPIYKEGKAKAGATGIEDLKVFAVSRIIFKGLIKNIQASWVKLGKKMVQVALRCGANDVGGTLIEESISRSAGAEHGVYMSVEEIRDMIKRVGLIPKERTTLYKILE”, the “soluble on expression in E. coli” value was “not soluble”.

On to “GPLGSHMSQAVQTNGTQPLSKTWELSLYELQRTPQEAITDGLEIVVSPRSLHSELMCPICLDMLKNTMTTKECLHRFCADCIITALRSGNKECPTCRKKLVSKRSLRPDPNFDALISKIYPSRDEYEAHQERVLARINKHNNQQALSHSIEEGLKIQAMNRLQRG”, for which the “soluble on expression in E. coli” value is recorded as “soluble”.
